# Measured values reported in the RNAGym collection of RNA variant scans (doi:10.7554/elife.80360).
# B1: Twister Ribozyme (parent)
# chain: AACACUGCCAAUGCCGGUCCCAAGCCCGGAUAAAAGUGGAGGGGGCGG
# Variants of: B1
# Assay: self-cleavage, relative activity (ratio to wild type); higher = more cleavage; co-transcriptional
row,Variant,self-cleavage
1,AACACUGCCAAUGCCGGUCCCAUGCCCGGAUAAAAGUGGAGGCGGCGG,0.146
2,AACACUGCCAAUGCCGGUCCCAAACCCGGACAAAAGUGGAGGGGGCGG,0.0777
3,AACACUGCCAAUGCCGGUCCCAAACCCGGAAAAAAGUGGAGGGGGCGG,0.106
4,AACACUGCCAAUGCCGGUCCCAACCGCGGAUAAAAGUGGAGGGGGCGG,0.0413
5,AACACUGCCAAUGCCGGUCCCAACCCCGGAUAAACGUGGAGGGGGCGG,0.0752
6,AACACUGCCAAUGCCGGUCCCAACCCCGGAUAAAAGUGUAGGGGGCGG,0.0664
7,AACACUGCCAAUGCCGGUCCCAACCCCGGAUAAAAGUGAAGGGGGCGG,0.0888
8,AACACUGCCAAUGCCGGUCCCAUUCCCGGAUAAAAGUGGAGGGGGCGG,0.0593
9,AACACUGCCAAUGCCGGUCCCAAACCCGGAUAAAAUUGGAGGGGGCGG,0.0791
10,AACACUGCCAAUGCCGGUCCCAAACCCGGAUAAAAAUGGAGGGGGCGG,0.0947
11,AACACUGCCAAUGCCGGUCCCAACCCCGGAUACAAGUGGAGGGGGCGG,0.146
12,AACACUGCCAAUGCCGGUCCCAACCCCGGAUAUAAGUGGAGGGGGCGG,0.0768
13,AACACUGCCAAUGCCGGUCCCAAACCCGGAUAAAAGUGGAGGGGGCGA,0.121
14,AACACUGCCAAUGCCGGUCCCAAACCCGGAUAAAAGUGGAGGGGGCGC,0.112
15,AACACUGCCAAUGCCGGUCCCAAACCCGGAUAAAAGUGGAGGGGGCGU,0.0761
16,AACACUGCCAAUGCCGGUCCCAUGCCCGGGUAAAAGUGGAGGGGGCGG,0.506
17,AACACUGCCAAUGCCGGUCCCAUGCCCGGUUAAAAGUGGAGGGGGCGG,0.501
18,AACACUGCCAAUGCCGGUCCCAAACCCGGAUAAAAGUGUAGGGGGCGG,0.0747
19,AACACUGCCAAUGCCGGUCCCAAACCCGGAUAAAAGUGAAGGGGGCGG,0.106
20,AACACUGCCAAUGCCGGUCCCAAACCCGGAUAAAAGAGGAGGGGGCGG,0.0684
21,AACACUGCCAAUGCCGGUCCCAAACCCGGAUAAAAGUGGAGGCGGCGG,0.107
22,AACACUGCCAAUGCCGGUCCCAAACCCGGAUAAAAGUGGAGGAGGCGG,0.102
23,AACACUGCCAAUGCCGGUCCCAUGCCCGGAUAUAAGUGGAGGGGGCGG,0.307
24,AACACUGCCAAUGCCGGUCCCAGGCCCGGAUAAAAGUGGAGGGGCCGG,0.181
25,AACACUGCCAAUGCCGGUCCCAGGCCCGGAUAAAAGUGGAGGGGUCGG,0.158
26,AACACUGCCAAUGCCGGUCCCAGGCCCGGAUAAAAGUGGACGGGGCGG,0.138
27,AACACUGCCAAUGCCGGUCCCAGGCCCGGAUAAAAGCGGAGGGGGCGG,0.142

row,Variant,self-cleavage
1,AACACUGCCAAUGCCGGUCCCAAACCCGGAUAAAAGUGGAGGGGGCCG,0.11
2,AACACUGCCAAUGCCGGUCCCAACCCCGCAUAAAAGUGGAGGGGGCGG,0.104
3,AACACUGCCAAUGCCGGUCCCAUGCCCGGAUAAAAGUGGAGGGUGCGG,0.484
4,AACACUGCCAAUGCCGGUCCCAUGCCCGGAUAAAAGUGGAGGGAGCGG,0.679
5,AACACUGCCAAUGCCGGUCCCAAACCCGGAUAAGAGUGGAGGGGGCGG,0.0576
6,AACACUGCCAAUGCCGGUCCCAUGCCCGGAUAAAAGUGGAUGGGGCGG,0.137
7,AACACUGCCAAUGCCGGUCCCAUGCCCGGAUAAAAGUGGAAGGGGCGG,0.126
8,AACACUGCCAAUGCCGGUCCCAUGCCCGGAUAAAAGUGGACGGGGCGG,0.0988
9,AACACUGCCAAUGCCGGUCCCAACCCCGGAUAAAAGUGGAGAGGGCGG,0.105
10,AACACUGCCAAUGCCGGUCCCAACCCCGGAUAAAAGUGGAGCGGGCGG,0.0931
11,AACACUGCCAAUGCCGGUCCCAGGCCCGGAUAAAAGUGGAGGUGGCGG,0.0895
12,AACACUGCCAAUGCCGGUCCCAGGCCCGGAUAAAAGUGGAGGAGGCGG,0.0981
13,AACACUGCCAAUGCCGGUCCCAUGCCCGGAUUAAAGUGGAGGGGGCGG,0.494
14,AACACUGCCAAUGCCGGUCCCAUGCCCGGAUCAAAGUGGAGGGGGCGG,0.464
15,AACACUGCCAAUGCCGGUCCCAAACCUGGAUAAAAGUGGAGGGGGCGG,0.106
16,AACACUGCCAAUGCCGGUCCCAGGCCCGGAUAAAAGUGGAGCGGGCGG,0.176
17,AACACUGCCAAUGCCGGUCCCAUGCCCGAAUAAAAGUGGAGGGGGCGG,0.285
18,AACACUGCCAAUGCCGGUCCCAUGCCCGCAUAAAAGUGGAGGGGGCGG,0.0484
19,AACACUGCCAAUGCCGGUCCCAUGCCCGUAUAAAAGUGGAGGGGGCGG,0.315
20,AACACUGCCAAUGCCGGUCCCAGGCCCGUAUAAAAGUGGAGGGGGCGG,0.425
21,AACACUGCCAAUGCCGGUCCCAGGCCCGAAUAAAAGUGGAGGGGGCGG,0.307
22,AACACUGCCAAUGCCGGUCCCAGGCCCGGAUAAAACUGGAGGGGGCGG,0.0979
23,AACACUGCCAAUGCCGGUCCCAACCCCUGAUAAAAGUGGAGGGGGCGG,0.0961
24,AACACUGCCAAUGCCGGUCCCAACCCCCGAUAAAAGUGGAGGGGGCGG,0.135
25,AACACUGCCAAUGCCGGUCCCAACCCCAGAUAAAAGUGGAGGGGGCGG,0.0981
26,AACACUGCCAAUGCCGGUCCCAACCCCGGAUAAAAGUGGAAGGGGCGG,0.109
27,AACACUGCCAAUGCCGGUCCCAAACCCGGAUAAAAGUGGACGGGGCGG,0.0854
